Experimental data: the RNAGym collection of RNA variant scans (doi:10.7554/elife.90254)

B1: OR4K15 (parent)
chain: GUUAACGGUCAUAGGCCAUGGAAACUAGGAGCACCAUUUCGCUGCCAGUGAAGAAAUGAACAAAGAAAAUCUGGGCCAGGCAGGCAUCAAAAGAAAUAGUCUUGCGCUCAACCAGAAAGUCUGUAAUCAUUUUAAGGGUA

Variants of: B1
Assay: self-cleavage, relative activity (ratio to wild type); higher = more cleavage; in vitro, sequencing; the parent is a self-cleaving ribozyme

Variant | self-cleavage
C81U U127C | 0.22
U9A U57C | 1.02
A30G A55U | 1.44
A4G A55U | 1.33
G28A A64G | 1.4
A18U U38C | 1.28
U38A A90G | 1.18
A5G A63U | 1.35
A110U U132C | 0.71
G20U A82U | 0.2
G29A | 1.82
A30G A36G | 1.44
A11U U103C | 0.73
C40U | 1.57
A92G U127C | 0.9
A5U A62C | 1.64
A55G A62G | 0.75
A89G A92G | 1.02
C71U U131C | 0.25
A52C A55U | 1.72
A116U U124A | 0.08
C10U U120C | 1.12
A4G A33G | 1.14
G8A U108A | 0.05

Variant | self-cleavage
A18G A126C | 0.48
A62C U87C | 1.51
C17A A56G | 2.2
A56G A69G | 1.08
A91C A98G | 0.56
A67U G75A | 0.06
A18G A24U | 1.6
A66U A78U | 0.32
G7A C34U | 1.3
A95U A117G | 2.29
U43C A140U | 1.18
U19A A111C | 0.01
A13G | 0.79
G8U A69G | 2.76
A23G U132A | 0.86
U57C A66G | 0.31
A98G A111G | 0.01
A27U G79U | 0.09
A5G A135U | 1.26
U43C A86C | 1.4
A59G A129C | 0.55
A27G U70C | 0.56
U39C A96U | 1.52
U38C U127A | 2.78

Variant | self-cleavage
A13G G65A | 1.2
A13G A18G | 1.3
U2C A24G | 1.09
A23G G53C | 1.82
U19G U100C | 2.09
A36G U43A | 1.27
C45A C101U | 0.48
A51U U70C | 0.46
A22G A69U | 1.28
U70A A116U | 0.79
A95G A126G | 1.12
A30U A134G | 1.06
A82G U87A | 0.32
U12G G138A | 1.44
G14A A69G | 1.03
A69G U124C | 1.11
U12C U39C | 1.21
G106U A114G | 0
U49A U130C | 1.53
C105A | 0.03
A92G A94G | 1.49
C34U U120G | 0.94
A91G C128A | 0.44
U2C U102A | 0.73

Variant | self-cleavage
G31A A47U | 0.83
C34U A129G | 0.51
A24G A36G | 1.15
A82G A140U | 0.53
A92G U108A | 0.03
A55U A117G | 1.77
C107G A118G | 0.01
A91U U97C | 2.02
U38C C88U | 2.51
A13U A110G | 0.08
U39C G53A | 1.53
C6A U124A | 0.95
U57G | 1.34
A78C A90G | 0.16
A27G A140G | 1
C16A U38C | 0.92
A92G U132A | 1.23
U37C U70A | 1.1
U3C A51U | 1.27
A23G C71U | 0.31
A23G A140C | 1.55
A18G A117G | 0.59
A27U A54G | 1.64
U132C A134U | 1.49

Variant | self-cleavage
C32U A47U | 0.9
A82U U127C | 0.13
U2C A82U | 0.17
U97C A117G | 2.06
U2C G137U | 1.25
C10U U39A | 0.81
U87A U103C | 0.68
U102C A114G | 0.68
A5G A36C | 1.79
A23G A78G | 0.29
A68G C88U | 1.57
A13G U103C | 0.75
A68G U70A | 1.12
A5G A23G | 0.8
A11C A110U | 1.76
A54G C105U | 0.36
U2C A55U | 1.46
U2G U12A | 1.45
G79A A86U | 0.09
C17U U100A | 0.96
A18G A134U | 1.88
A23G A117U | 0.55
A30U G119A | 2.38
U9C C109G | 0.04

Variant | self-cleavage
A22G U130C | 0.3
A52G A78U | 0.47
G104U A140G | 0
A18G A36G | 1.4
A64G U132A | 1.85
G93A A111G | 0.04
U12C A92G | 0.58
U9C A55G | 1.28
A36G A89G | 1.52
U26A A59G | 1.18
G31U A90G | 1.32
G106C A118G | 0
A5C U38C | 1.28
A47U A89G | 0.86
U70C A114G | 0.12
A5U A94G | 1.51
A60G A86U | 1.44
U37C C109A | 0.34
G84A A126G | 0.87
A4G | 0.87
A54G A66U | 1.14
G48U A94G | 0.54
A64G A129G | 1.14
A64G A129U | 0.99

Variant | self-cleavage
G15A A51U | 1.78
C121A U130C | 1.87
U39C A140C | 1.79
U103A U133C | 0.61
U130C U139C | 1.09
A52U A117G | 1.11
U12A G138A | 1.5
A11G U103A | 0.77
C16U U72A | 0.53
A47G A114U | 0.11
A27G A90G | 1.41
C10A U127C | 0.84
A51U U57C | 1.58
G14U A54G | 1.65
C34U A96G | 2.68
G115U | 0.23
U43C A82U | 0.18
A59G A135G | 0.84
A23G U108C | 0.03
A23G U108G | 0
A69U U132C | 1.11
A47G C81U | 0.25
A13G A140G | 0.62
